Assays:
[1] = target: Delta株刺突蛋白(S蛋白)，在假病毒/真病毒表面 (SARS-CoV-2 Delta株 (B.1.617.2)); assay: cell-based or functional assay
Gamma株刺突蛋白(S蛋白)，在假病毒表面 = Gamma株刺突蛋白(S蛋白)，在假病毒表面 (SARS-CoV-2 Gamma株 (P.1)); assay: cell-based or functional assay
[2] = target: Beta株刺突蛋白(S蛋白)，在假病毒/真病毒表面 (SARS-CoV-2 Beta株 (B.1.351)); assay: cell-based or functional assay
Alpha株刺突蛋白(S蛋白)，在假病毒表面 = Alpha株刺突蛋白(S蛋白)，在假病毒表面 (SARS-CoV-2 Alpha株 (B.1.1.7)); assay: cell-based or functional assay
Omicron株刺突蛋白(S蛋白)，在假病毒表面 = Omicron株刺突蛋白(S蛋白)，在假病毒表面 (SARS-CoV-2 Omicron株 (B.1.1.529)); assay: cell-based or functional assay
SARS-CoV-2 WT S-ECD蛋白 = SARS-CoV-2 WT S-ECD蛋白 (SARS-CoV-2, UniProt P0DTC2 14-1213)

B1: 抗SARS-CoV-2全人源单克隆抗体ZWC12 (antibody, V domains shown)
VH: EVQLVESGGALVQPGGSLRLSCAASGFTFANYAMSWVRQAPGKGLEWVSSMTGSSIDSYYADSVKGRFTISRDNSRNTLYLQMNSLRAEDTAVYYCAKGELLWFGDLLHNWFDPWGRGTLVTVSS
VL: DIVMTQSPATLSVSPGERATLSCRASQSVSTNLAWYQQKPGQAPRLLIHGASTRATGLPARFSGSGSGTEFTLTISSLQSEDFAVYFCQQYDSWPGTFGPGTKVDIKR
[1]
  假病毒中和 EC50 (luciferase, HEK293T): 0.411 µg/mL
  真病毒中和 EC50 (Vero E6, crystal violet): 7.97 µg/mL
Gamma株刺突蛋白(S蛋白)，在假病毒表面
  假病毒中和 EC50 (luciferase, HEK293T): 0.136 µg/mL
[2]
  假病毒中和 EC50 (luciferase, HEK293T): 0.162 µg/mL
  真病毒中和 EC50 (Vero E6, crystal violet): 721 µg/mL
Alpha株刺突蛋白(S蛋白)，在假病毒表面
  假病毒中和 EC50 (luciferase, HEK293T): 0.124 µg/mL
Omicron株刺突蛋白(S蛋白)，在假病毒表面
  假病毒中和 EC50 (luciferase, HEK293T): 0.093 µg/mL
SARS-CoV-2 WT S-ECD蛋白
  Kd: 1.75 nM

Source: patent CN114044821A (INST MILITARY MEDICINE ACADEMY MILITARY SCIENCES PLA, dated 2022)
